This test has as its target Neisseria meningitidis Cas9 (NmeCas9, from strain 8013), 6×His-tagged (Neisseria meningitidis (strain 8013)) (UniProt C9X1G5).
Sequence of UniProt C9X1G5 (C9X1G5 whole entry): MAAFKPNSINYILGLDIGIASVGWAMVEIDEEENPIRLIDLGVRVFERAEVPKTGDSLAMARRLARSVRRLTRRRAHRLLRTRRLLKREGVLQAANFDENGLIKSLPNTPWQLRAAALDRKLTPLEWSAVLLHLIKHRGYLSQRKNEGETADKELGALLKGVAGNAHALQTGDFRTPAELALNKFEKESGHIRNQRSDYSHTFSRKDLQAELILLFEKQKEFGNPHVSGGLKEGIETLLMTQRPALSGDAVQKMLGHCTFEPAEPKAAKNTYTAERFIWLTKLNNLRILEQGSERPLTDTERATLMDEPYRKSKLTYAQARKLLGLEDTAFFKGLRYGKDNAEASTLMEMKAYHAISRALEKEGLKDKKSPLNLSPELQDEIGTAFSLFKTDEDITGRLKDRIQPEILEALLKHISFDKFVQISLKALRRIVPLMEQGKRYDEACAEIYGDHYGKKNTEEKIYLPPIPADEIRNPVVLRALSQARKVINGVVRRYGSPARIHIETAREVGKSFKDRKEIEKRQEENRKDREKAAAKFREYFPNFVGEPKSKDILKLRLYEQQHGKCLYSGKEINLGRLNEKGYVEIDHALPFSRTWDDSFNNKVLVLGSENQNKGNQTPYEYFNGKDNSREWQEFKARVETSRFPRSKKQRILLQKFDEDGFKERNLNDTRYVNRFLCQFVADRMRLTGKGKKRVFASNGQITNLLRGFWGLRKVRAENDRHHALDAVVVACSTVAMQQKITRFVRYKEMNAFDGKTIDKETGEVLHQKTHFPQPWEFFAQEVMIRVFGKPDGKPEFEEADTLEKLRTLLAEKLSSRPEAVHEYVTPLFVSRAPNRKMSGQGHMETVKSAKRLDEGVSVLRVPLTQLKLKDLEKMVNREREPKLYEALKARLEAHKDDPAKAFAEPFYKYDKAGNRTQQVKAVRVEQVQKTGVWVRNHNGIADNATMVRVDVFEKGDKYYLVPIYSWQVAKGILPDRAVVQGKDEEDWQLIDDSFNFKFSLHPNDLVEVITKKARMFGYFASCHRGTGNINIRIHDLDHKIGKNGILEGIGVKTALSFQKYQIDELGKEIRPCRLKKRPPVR

Take AcrIIC5Smu, untagged (natural protein): the in vitro cleavage of linearized target plasmid by NmeCas9-sgRNA; molar excess of Acr over Cas9 at complete inhibition (fold molar excess of Acr) worked out at 7.

For the origin of these results see PMC6282205.
